Assay: soluble on expression in E. coli; label from the status in PepcDB or PDB records

| Sequence | soluble on expression in E. coli |
| --- | --- |
| MSLSKEKEVLLNEEIRADEIRCVGDDGKVYGIISSDEALEIANRLGLDLVMIAADAKPPVCKIMDYGKFRYQQEKKQKEAKKKQKVIDIKEIKLSVKIAQNDINYKVKHALEFLEQGKHVRFRVFLKGREMATPEAGVALLEKIWTMIENEANRDKEPNFEGRYVNMLVTPKKAEGHHHHHH | soluble |
| MDTESFKREFLPYHRKLYCVAYRLLENAADAEDLVQEAYLKLWDKREGLSVISNPEAFSVTLVKNMCFDLLRSGKYVLSRQSVELSAAQDVFQPDNLEAREGVRQIKDIIAHLPEQQQRIINMRDIKGCSYEEIEQVTGLNSINVRVLLSRARKKIREEFNKWNNYESRRN | not soluble |
| MPDRTTDDFGPFTEQIRGTIDGMGTAEFDALPVGAIQVDGSGVIHRYNRTESRLSGRIPERVIGRNFFTEVAPCTNIPAFSGRFMDGVTSGTLDARFDFVFDFQMAPVRVQIRMQNAGVPDRYWIFVRK | soluble |
| MSLMEDVGKEMSKIIQKRDINERYEELVNEVLKDQDVQAFIQANRERLTDEDIRKSYAKLYEFVQEKKKFQVNDPAMIAPGYEPRLMLNFHYIDVTYVPTADLIARQKEEEIRNRVRAMDMPKDVREANLRDFDPSSQGRAKALAEAMQFLREYPATPKEFHKGLYLQGPFGVGKSFLLGAMANALAERGFTTTIVHFPTFTVEMKQAIGRDQVGEKLDAVKKSPILMIDDIGAESMTSWIRDDVLSVILQYRMQEQLVTFFSSNLDLKALEEHLTVTQRGEQEPLKARRIMERVRYLSKEITMTGNDRRNGEGHHHHHH | soluble |
| MSLSIYSVGRWICRSYFRLFFKVEVIGASRIPDEGGLLLCCNHFSNYDPPFVGSFFPRKVRFMAKEELFRFKPLQSLMMAVGAFPVRRGAGDKQALKVGLKLLKEGETLGIFPEGTRSKDGQIGKGLSGVGFFALRSDATVVPCAIVGKYRFFRKVRFVIGEPVPMEELKERKASAEEATEVIMKAIRKLHEQNQMSEGHHHHHH | soluble |
| DIKMTQSPSSMYASLGERVTITCKASQDINSYLNWFQQKPGKSPKTLIYRTNRLVDGVPSRFSGSGSGQDYSLTISSLEYEDMGIYYCLQYDEFPYTFGSGTKLEIKRTVAAPSVFIFPPSDEQLKSGTASVVCLLNNFYPREAKVQWKVDNALQSGNSQESVTEQDSKDSTYSLSSTLTLSKADYEKHKVYACEVTHQGLSSPVTKSFNR | soluble |
| SLDWQKGMNSAIDYIEKNLTGNVNVRTAAGFVGCSTWEFQRIFSFLTHIPLSEYIRQRKLTLAAQEIKDNDVKIIDIALKYGYESPAAFSRAFNKLFGIAPSSVRNTENNLKTYPRITFEKIENERLIKMSRFSERGYVVRENGPVYFTKDMDKTVKWFEEILGWSGDIVARDDEGFGDYGCVFDYPSEVAVAHLTPFRGFHLFKGEPIKGVAGFMMIEGIDALHKYVKENGWDQISDIYTQPWGARECSITTTDGCILRFFESIQEG | soluble |
| MSLKSKEKLFIANVADSNLNEADKDKAKNEIAKLNASQVVATTLASSVRETEKQEKIETDICNENAISESKLDGIDDLEFVDENYYISPSLDTLATLSKYEIQKVENLVVGNKQYGKIEFLDPVDLSDIPLGSICDDLVVFQPMSVLLYNNSTNVPEKGKGLNVRARISCYNCYPLDKSTRKPIKDPNHRIMERYSEKLKKIPHTHFESYDPASGTYCFTVDHALEGHHHHHH | soluble |
| MAQIVVIGAGLGGLPAAYELRHYLGKAHQVILISEFPQFTFVPGLVQVGLGHIPLDHMQLNVPMLAKRHGFKWVQGKVQKIDPLQKRIYTHETLNYDYLIIASGAELANDLVPGLGIYTHSICTPSHVLEARTAWETFCQQPGDLVVGAAPGTGCFGPAYEYVLLAEADLRRRGIRDQVKITYITPEPYIGHLGIANMAHSQTLTEALMNKRGIATLTNAQIVNISSDHIFLADGQSFGFAYSMILPAFRGAKFVKASGLGNERGFLPVLPTMRHRDYPEIYGVGVSVHLGQINDTQVSIGTPKSGQMTEAMAMVAAHNIAVELGSIAKPLQVPTLEALCFAEYGDTGIAYIAAPVLPDRLTGKRRYSYAIKGIWVNWAKAAFEKYFLAKMRLGVGLPWFEKLGLRLLFGLSMSRPAMAEDIVQPVNVLEHHHHHH | soluble |
| MNKAYYIGLMSGTSMDGVDAVLVDFAGEQPQLIGTHTETIPTHLLKGLQRLCLPGTDEINRLGRLDRSVGKLFALAVNNLLAKTKIAKDEIIAIGSHGQTVRHMPNLEVGFTLQIGDPNTIATETGIDVIADFRRKDIALGGQGAPLVPAFHQQTFAQVGKKRVILNIGGIANITYLPGNSEEVLGFDTGPGNTLIDAWVQQVKNESYDKNGAWAASGKTDPQLLAQLLSHPYFSLAYPKSTGRELFNQAWLEQQLSAFNQLNEEDIQSTLLDLTCHSIAQDILKLAQEGELFVCGGGAFNAELMQRLAALLPGYRIDTTSALGVDPKWAEGIAFAWLAMRYQLGLPANLPAVTGASREAILGGRFSAK | soluble |
| MGTSFRQYFKIVPALTEELKREAYRVRHSVYCEDLQFESSRSDGFEIDEYDAHSLHLLIRSINNDTFIGCTRIIRPSSNSNDRRLPFEKTCAQTLDRSIIDPSRLPADKIGEVSRLAVIAAFRRRKGEKNHPINISEEDFSTGPMMRFPYIPLSLYIGTIELARIHDIRVLFMLTEERLASHFSRLGAQLEPIGAPVEHRGLRFPSMVEINSIISNMRPIFRPLYQAIAEDIKAELEKKNH | not soluble |
| MQIFLLGLDNTTHTLDVDASTTLSAIKGVIGAGEEFSISYGSKVLSEELTLGECQIESLSTLSVNGRLLGGKVHGSLARAGKVRAQTPKVDKQDKKKKKRGRAFRRVQYTRRYVNVASGPGKKRGPNSNS | not soluble |
| EQALSDQLRFVEALTDCMPPPLYVRDVNGRMLSCNRSYLQSVGLSSEEVMNRTVLELPMENFETAPEFHRSYLMAMREGRTIEAVYPVALGGRERWIDHWIQPFRDSSGTIRGVICGWLDITEHRQLIDELEEAKNLADEASRAKTTFLATMSHEIRTPMNAVIGILELALKRAETGRVDRSSIEIAYASAKSLLELIGDILDIARIESGRLSLSPKRANLRELVESVARVFEGLARQKRLSLVLEIDSSINGDVLLDAMRFKQILSNLVSNAIKFTDEGSIRIRIDGRQVEPSLLQVNLCVEDTGIGISLGDQQQLFRPFAQVNRNLQNTEGTGLGLVISRSLCEMMGGRLVMSSELGQGTRIDVELRLQVLEPIVENVRAIPLGSRQARRLQVLVVDDHAVNRQILHQQLSFLGHDVEEAENGLSALNLWHGQPFDMVITDCHMPLMSGSDLARSIRQEERENGEEPVVIIGLTADAQPEEIERCIQAGMNECLIKPIGLDVLEERLLALGFAADELPVTIDAEPVAIPTAPRLYDLDSLHALTGGEPTMLRRLLDELLTSNRKDLETLEGLVQRQETGELAELAHRIKGAARVVRGEQLVESCRRLEDACLSPNASFAWVEECAVGVKLAILALDESLVEEC | not soluble |
| MMQFEVKDLINKIKKDGLEEAERASNDIILKAKREAEEIVARAEEAARVLKAKSEKEANDYKCHALEASRQAIRDLIIGVEKNLKSLFENALKDNVTEVLSDNNFLAELIIKITDSWAKGEKLVIQLNESDFSSLEQILRLKLGNKLKEGMELRPFRGISKGFKIQKKNIGLHYDFSAETIADILFDYLNPRFKEVIKVV | not soluble |
| MSLKYSFIAQHKKTWPVGMMCQLMGVTSSGYYSYQKRKSTKTNNEPEHEELLEWVKKISESSKFSYGNRRIRKALNALGYPVGRRKTHRLMREAGIFVRYKKKYKVTTNSNHKQPIFDNVLNRKFQVNEPNRAYVSDMTYIPTHEGWLYLTVVIDLFSRKVVGWNMSSRMKADTVCDALTMAIWQRKPKAGLIVHSDRGSQYASKQYRSLLNQHGLVGSMSKKGDCWDNSVAESFFSRLKDELVHWRNYQTRREAKQDILDYMTMFYNNQRLHSSLDYLSPNQFENRYWGLMKKVAEGHHHHHH | not soluble |
| MSDSSHAFSATERAAVYRAIAERRDMRHFSGGSVAPELLARLLEAAHQAPSVGLMQPWRFIRITEPALRRAIHGLVEEERGRTAEALGERSDEFMRLKVEGVLDCAELLVAALMDDRERHVFGRRTLPQMDLASLACAIQNLWLASRAEGLGMGWVSLFDPAALGELLGLPPGSEAVAVLCLGPVAEFYPAPMLALEGWSEPRPLAELVYQNRWGERA | not soluble |
